# Measured values: paper PMC12193089, “Genome-Wide Identification, Plasma Membrane Localization, and Functional Validation of the SUT Gene Family in Yam (Dioscorea cayennensis subsp. rotundata)” (International Journal of Molecular Sciences, 2025)
# B1: DrSUT1 (Dioscorea cayenensis subsp. rotundata) (protein)
# chain: MDAVSIRVPYRNLKEAELELEMGHLNGDPSGEIHDLGSRPSGGLPPSFPSASPSSPDEYGSSDASHRSQPRSSMKTLVLSCIVAAGVQFGWALQLSLLTPYIQTLGIEHAFSSFIWLCGPITGFIVQPCVGIWSDKCTLKLGRRRPFILAGSLMISFAVILIGFAADIGYLLGDTDQDCRSYKGPRWRAAAIFVIGFWMLDLANNTVQGPARALLADLSGPDQCNSANAIFCSWMALGNILGFSSGANGNWHRWFPFLTTKACCEACGNLKAAFLVAVIFLMFCTFVTLYFAKEVPLEAKPTQQFSDGAPLLNDKQQHGHRGSPTNSPKLENGEKLSVDLMADKASSRNPSNFDRNAKNDEMEALSDGPGAVLVKLLTSLRHLPPGMYSVLLVMALTWSSWFPFFLFDTDWMGREVYRGDPSGTESEIGSYQKGVRDGAFGLLLNSVVLLVASFLIDPICRRMGARMVWAMSNFIVFICMAATTIISLWSINEHLTGIQHVVGANKAVRVGALVIFSLLGFPLAITYSVPFSVTAELTADSGGGQGLATGVLNLAIVIPQMVVALGAGPWDALFGGGNIPAFALASAFALAASFLAFKRLPTLSGSYSSVGFHGFG
# notes: no tag told
# Substrate: OC[C@H]1O[C@@](CO)(O[C@H]2O[C@H](CO)[C@@H](O)[C@H](O)[C@H]2O)[C@@H](O)[C@@H]1O
# Test: cells, lysate or membranes
# Format: cell-based, Dioscorea cayenensis
# Settings: PBS pH 5.5, 30 °C, labelled compound, methods print a final sucrose concentration of 100 mM, at odds with a μM Km
protein,measurement,value
B1,Km,76.69 µM
